From publication PMC3948627

Target: Aha1 I64X (pAzpa at position 64) with C-terminal V5/His6-tag (S. cerevisiae) (UniProt Q12449)
Assay: cross-linking; in vivo photo-cross-linking (pAzpa, UV 365 nm), crosslink product immunoprecipitated by anti-V5, separated by 6% SDS-PAGE, band digested and identified by MALDI-TOF/MS

stoichiometry N: 2
Substance: Aha1 I64X (pAzpa at position 64) with C-terminal V5/His6-tag (from UniProt Q12449 1-350)
